Reference: patent US20250327089A1
pEC50: −log10 of the molar value.

Target: target receptor on brush border membrane vesicles (BBMVs) from C. includens (Pseudoplusia includens (C. includens))

Work on “PtIP-65Aa polypeptide (Pteridophyta Insecticidal Protein-65Aa)” yielded a pEC50 of 7.85.
